From the DeepSol protein solubility set

Assay: soluble on expression in E. coli; label from the status in PepcDB or PDB records

## MTEWTGEERYQRIEDVDTEYFKTLKQQVDQSKFRQQFHIQPETGLLNDPNGLIFYKGKYYVSHQWFPLGAVHGLKYWYNYTSDDLINFKAEGPILNPDTKYDSHGVYSGSAFEYNGHLYYMYTGNHRDNHWQRHASQMIARLKEDGSVEKFPKPVISQQPEGYTSHFRDPKVFKYDEKYYAIIGAQNNDQQGRLLLYNTEDIINWHYLGEINTELDDFGYMWECPDYFNVDNQDVILICPQGIEPKGDQFKNIYQSGYILGKFDIEKLTYEHENFVELDNGFDFYAPQTFLDEKGRRVLIGWMGLPEIEYPTDNEGWAHCLTTPRVLNVENGQLKQRPYPALEKLRHNKETALGYANKFTRKLHPYEGKQYELIIDILDNDATEVYFELRTSKTSSTLIAYNKRENKITLDRSDSGLLPTNVEGTTRSTILDTPLKQLQIFVDTSSIEIFCNDGERVLTSRIFPTEDALGIKTSTESGQVYLQFTKYDLKDEHK
  soluble on expression in E. coli: not soluble

## MGSDKIHHHHHHMGLYDLLDAEGKDDQKGKSPGVAVGVVADNQDPEGMGRVKVRFPWKDDADESTWARVVTPMAGKGRGLWFLPEVGDEVLVAFDHGDVQHPYVLGSLWNGTDTPPGDNGDGNNNIRKITSRSGHELVFDDTSGAEKVVIRTKAGHAITLDDAGGGEKIEIKDKSGSNKLVIDSAQNSIGIESSMKLTIKGQMVEIQSDANMTLKAGAVMTIQGSMVKIN
  soluble on expression in E. coli: not soluble

## MGSDKIHHHHHHMAETIETMGGQAALDHVSRLLSLKVDIRGLEHLPAEGRVVIVANHPTGIGDGVAVYDALKTHRPDIVFYANADAHRVCPRFDDVLIPVEWVEEKRSRERMRLTLSMTREAMEAERALMIFPAGRLAVTDAEGRLSDPPWMSSAVSIARKYGAPIAPIHLEGPWSTLFHLFGRLSRELRDITLFHELLNKTGRRFSLTIGPPVDPEALPRDAEQATEVLKRYVERQLPNEPTSPLT
  soluble on expression in E. coli: not soluble

## MSLSNIETVPASIEMKPNPTITVFERSPDGGRGLARDMPVRWALEEVGQPYHVRRLSFEAMKEASHLAYQPFGQIPSYEQGDLILFESGAIVMHIAQHHSGLLPEDQLRRARTVAWMFAALNTIEPSILNFTTVWLFERNEPWHEARLARTKEQLLKRLDELSAWLGDREWLEGSFSAADILMICVLRRLESSGILKDYGNLLAYVERGKARPAFKRAFDAQLAVFTAASKNEGHHHHHH
  soluble on expression in E. coli: soluble

## GMDIMLNTADISAAAILLPVEGAQLSELRQIPAEGGPVLHMLRLDSPQFSQFGEIYFSEVLPRRVKAWKRHSLMTQLFAVPVGCIHVVLYDGREKSPTSGRLAQVTLGRPDNYRLLRIPPQVWYGFAATGDTPALVANCTDIPHRQGESERAPQDAPFIPFSWAGADLSGTPVM
  soluble on expression in E. coli: soluble

## MSKFLDRFRYFKQKGETFADGHGQLLNTNRDWEDGYRQRWQHDKIVRSTHGVNCTGSCSWKIYVKNGLVTWETQQTDYPRTRPDLPNHEPRGCPRGASYSWYLYSANRLKYPMMRKRLMKMWREAKALHSDPVEAWASIIEDADKAKSFKQARGRGGFVRSSWQEVNELIAASNVYTIKNYGPDRVAGFSPIPAMSMVSYASGARYLSLIGGTCLSFYDWYCDLPPASPQTWGEQTDVPESADWYNSSYIIAWGSNVPQTRTPDAHFFTEVRYKGTKTVAVTPDYAEIAKLCDLWLAPKQGTDAAMALAMGHVMLREFHLDNPSQYFTDYVRRYTDMPMLVMLEERDGYYAAGRMLRAADLVDALGQENNPEWKTVAFNTNGEMVAPNGSIGFRWGEKGKWNLEQRDGKTGEETELQLSLLGSQDEIAEVGFPYFGGDGTEHFNKVELENVLLHKLPVKRLQLADGSTALVTTVYDLTLANYGLERGLNDVNCATSYDDVKAYTPAWAEQITGVSRSQIIRIAREFADNADKTHGRSMIIVGAGLNHWYHLDMNYRGLINMLIFCGCVGQSGGGWAHYVGQEKLRPQTGWQPLAFALDWQRPARHMNSTSYFYNHSSQWRYETVTAEELLSPMADKSRYTGHLIDFNVRAERMGWLPSAPQLGTNPLTIAGEAEKAGMNPVDYTVKSLKEGSIRFAAEQPENGKNHPRNLFIWRSNLLGSSGKGHEFMLKYLLGTEHGIQGKDLGQQGGVKPEEVDWQDNGLEGKLDLVVTLDFRLSSTCLYSDIILPTATWYEKDDMNTSDMHPFIHPLSAAVDPAWEAKSDWEIYKAIAKKFSEVCVGHLGKETDIVTLPIQHDSAAELAQPLDVKDWKKGECDLIPGKTAPHIMVVERDYPATYERFTSIGPLMEKIGNGGKGIAWNTQSEMDLLRKLNYTKAEGPAKGQPMLNTAIDAAEMILTLAPETNGQVAVKAWAALSEFTGRDHTHLALNKEDEKIRFRDIQAQPRKIISSPTWSGLEDEHVSYNAGYTNVHELIPWRTLSGRQQLYQDHQWMRDFGESLLVYRPPIDTRSVKEVIGQKSNGNQEKALNFLTPHQKWGIHSTYSDNLLMLTLGRGGPVVWLSEADAKDLGIADNDWIEVFNSNGALTARAVVSQRVPAGMTMMYHAQERIVNLPGSEITQQRGGIHNSVTRITPKPTHMIGGYAHLAYGFNYYGTVGSNRDEFVVVRKMKNIDWLDGEGNDQVQESVK
  soluble on expression in E. coli: soluble

## EIAVIGAAGKTGAAVVAALEGLDDVRRVVHTARRAGDFAVDLETGAGLDKALSGCRGVYFIAPNVHPDEPALLRNTMRAAASVGVDHFVYHSVAWPYTPLMPHHVDKARCEDELRTFGGLRWTVLQPCAYAENFGAVLAGTATTVELPYSPDAAFSFVALADVAEVGARVLVEGPDIHHGATYELGGPEALSVRDLCDRAGGPVSVKQVSVDEWMSRHGRDLTDDGRARLSAMFEFYDRYGFL
  soluble on expression in E. coli: not soluble

## MVLGLASFPESLSSQSETATQPRRPSVKWDLGSDYRKGTEETTASGSNFRRERLDSQPDLGLHVQPQIYFLRPRSPLPKLLFSLMNTNDANVKKLLPKSHLSRVIIRDNLNAQRICEMEMKASDKTKRKMSYLYDHLKKKFMMDQLRKMIRWRRDSQSTQDYLDKERV
  soluble on expression in E. coli: not soluble

## MKKIIFTFLILGNVYNFAAQKTLRTVEKCRVTSKGTTKDGKRFANCISLQSGKTFNFTGLVDQTYYKFSKGTIFKVYFYGNGNRNLTLETFDYIR
  soluble on expression in E. coli: not soluble

## MSLGGDNAEYGYVEQTHPAFIAGSFTTEKNAKSRYYLLAKYEMTVLQYSALTQAECPAPSNKQRLPVVSLSWMQAMEAADKYNIWLRENAADKLPKEDGVAGFLRLPTEVEWEFAARGGLNVSTAEFRDLRYPMPEGVNAYEWFAGTQSANGQLQLSGLLKPNPLGLHDMLGNVDEMMFEPFRLNKLDRQHGQAGGYVVRGGDFRTAQGELRSSLRKERNYYDAKAAATSKTTGVRLALASSTLTSRERVSSIETSWKKLGTGSGDTSQGEDKSAVQALGTLASGVADEALKEKLKALENQLRASNQQQEETRDQAIRASLNLGAFLCTKMLDDGKYLDFLQKNYALNCSAAEQDASCPMRKGKLDEQKDRLHKLSRYYASSLVDSATLYGEPLLARQIPVMGEIISRNEQLKELKPYLQTHWVNQQAFLKTQKIDTDAWLNRCKAVQEGHHHHHH
  soluble on expression in E. coli: not soluble

## MAASWRLGCDPRLLRYLVGFPGRRSVGLVKGALGWSVSRGANWRWFHSTQWLRGDPIKILMPSLSPTMEEGNIVKWLKKEGEAVSAGDALCEIETDKAVVTLDASDDGILAKIVVEEGSKNIRLGSLIGLIVEEGEDWKHVEIPKDVGPPPPVSKPSEPRPSPEPQISIPVKKEHIPGTLRFRLSPAARNILEKHSLDASQGTATGPRGIFTKEDALKLVQLKQTGKITESRPTPAPTATPTAPSPLQATAGPSYPRPVIPPVSTPGQPNAVGTFTEIPASNIRRVIAKRLTESKSTVPHAYATADCDLGAVLKVRQDLVKDDIKVSVNDFIIKAAAVTLKQMPDVNVSWDGEGPKQLPFIDISVAVATDKGLLTPIIKDAAAKGIQEIADSVKALSKKARDGKLLPEEYQGGSFSISNLGMFGIDEFTAVINPPQACILAVGRFRPVLKLTEDEEGNAKLQQRQLITVTMSSDSRVVDDELATRFLKSFKANLENPIRLA
  soluble on expression in E. coli: soluble

## MAHHHHHHMFSFYIYRKKTISWDEVTINEQDKERGSRMKILEPNTPFNFILMDSASEDEASKYGDVKGSDEGQNNIADDLINKLNQLVEKQENKGVSNIDFKEKRKKHYNEYKMLQKLRKSGTLDDIDEEYKPDNKDSNCDNSVSQEFPCYIARNFVVISL
  soluble on expression in E. coli: not soluble

## MSLKNLTIKENQPAIYITNLGKYTEGEHMGQWLNVPATKEQFNVVLKNIGVDGVQYEEYFLTDWENIGGISQFSNIERVNNMAKIQIAINEKLYNFFGADQEITYFNDDKYKVMEILNDYAKEQADELTTDEIIENIESMRIFAQDQYNSCIVNFANYLIDELEFINFKAIEKIDQKVVNYFDFEKFGHDKLIELNANSDVIIGTYEVGKLNDTIIIVTLFEGHHHHHH
  soluble on expression in E. coli: soluble

## MMCGGRGTRLDAAAEKPLFEVGGRAMVDHVRAALEAAGRIDTTHAAVSPHAPDTAAHLAATPLSLIETPGDGYVADLTAALDAVGTPVLTVAADLPLLAPAVVDTVVAAADGATTSACVPRALKHELGVSTDADADAWVPTGVNVVGGGDTEATHRSFDARLAVNVNHRSDAAVAARLLAATDRRNHPRLEHHHHHH
  soluble on expression in E. coli: not soluble

## MGSDKIHHHHHHVSKILIIYSSVHGQTRKLCDFMQRELEALEHSVTCASIDNPPAMEGFDKIVLGASIRHGKHNPRVYDFIRENIKVLQEKASSFFSVSLVARKPAKNTPETNPYMQAFLAKSPWQPKLLAVFGGNLDYQGYNALDRNIIRFIMWITKGPTAPDTKVEYTDWDKVKHYAQQVDAL
  soluble on expression in E. coli: not soluble

## MKNELICYKQMPVWTKDNLPQMFQEKHNTKVGTWGKLTVLKGKLKFYELTENGDVIAEHIFTPESHIPFVEPQAWHRVEALSDDLECTLGFYCKKEDYFSKKYNTTAIHGDVVDAAKIISPCKVLDLGCGQGRNSLYLSLLGYDVTSWDHNENSIAFLNETKEKENLNISTALYDINAANIQENYDFIVSTVVFMFLNRERVPSIIKNMKEHTNVGGYNLIVAAMSTDDVPCPLPFSFTFAENELKEYYKDWEFLEYNENMGELHKTDENGNRIKMKFATMLARKKLEHHHHHH
  soluble on expression in E. coli: not soluble

## MGSDKIHHHHHHMNILAPVSSVKEAEQLIAHGADELYCGIGLGALKNRPGNTDREIWINRRESGNANIPDLESLSLLVDHAHAQGKKVYLTLNQPGYAQDLYGEILAFVREVKKSCQVDAFIVADPGLIRMLIGKEPDMVIHVSSLAGVLNSSAVLFFKKLGVKRIVFPRYLEAETLKKIMDRAGEDLEYEVFILNDGCMFEESHCHVSHQFGGAFCHNPAWRYKLIPPEEGGILETWKLRNLKIAGETFEGNVEEWKRWQWLGIKNGGGYIGAKYPLGMCGLCTLPEYRDMGITSLKIVGREAPLSKKIKSVQLLKKVLDYQREEHLPDEVRDYARRTKGARLLCGSGYMCYER
  soluble on expression in E. coli: not soluble

## MAHHHHHHMHSSPSKKKDLSNGACPAKEKEASKRKQSFNDVELEIDDDIITHLSSRICNKNVTHKILKINNLIDDQMHDYIANGRASEISESNDESDAHEGVERAHLNLRNGYAGCQHGDESSSNTISNDLPERKAISSEQVPTYELNKEVQGKSKAKGKGKGKGELLSDDPHLEEPLAEGHTHFDRIKMMNLLGENTIVYNSRDDQNNVLFLCYDEKSEQCDVCDRYRKNYMSNMHPSSCVPLRGGAAMKGDAAINGNAPINGVAATNGAAAINGTAAIDALSDYFFVLGSTSNSRKYILKQSSLDFLSVRIHIDEKKIGCRKSHDPLTLTANIAVGKGLKLLNMIKTDSELSKQIAELSKGKKVVLLVGDEVIYCNNKIYEKPKNEKEASNFLKSYNNSKCYSYSSITLIELETEKIITGIDESIINVYDMDDSVVKKILDDSSIYFCAGALKIENTHMHRYIKVIKGNIDSIFGLSLNLLFHLVNFL
  soluble on expression in E. coli: not soluble

## GPGSMQERESLLKEYKGLLANLEEAFDLKRSNEADQEVDDLIDETKAELRTVVASLNASEVIEVTKDVTKVVDADGNTVILYSKVAPYEVHFDNAMWYSCVITDVVQPETALERVRYKAWILGYNVEEETYSEQLRVWQPQAAEGETTLRSGVACHAVNPRSGRFESAKVVRLTLSDTVILTFSDVVEMTKEVGETDGAGAAGELATGKRDPSGGDTSAVTEEVPLSHVRVGRFYQQLRKRSTLTSEERARRRAQNVERKRVRRETKRQQDANVASQNANDWQRLVEDMGLATGCAKKRR
  soluble on expression in E. coli: soluble
